Source: the Human Domainome abundance scans (Beltran et al. 2025)
± gives the uncertainty stated by the source.

Assay: abundance fitness (aPCA) (normalised: wild type 0, dead -1); higher = more abundant; growth selection in yeast, the domain comes from the species named
Details: Homo sapiens

| Substance | abundance fitness |
| --- | --- |
| Transcriptional activator Myb L173Q, P10242 | -1.13 ± 0.25 |
| Transcriptional activator Myb L172T, P10242 | -0.359 ± 0.11 |
| Transcriptional activator Myb K143L, P10242 | -0.221 ± 0.16 |
| Transcriptional activator Myb E150P, P10242 | -0.468 ± 0.12 |
| Transcriptional activator Myb E201H, P10242 | -0.034 ± 0.15 |
| Transcriptional activator Myb W185L, P10242 | -0.509 ± 0.067 |
| Transcriptional activator Myb S203L, P10242 | -0.042 ± 0.094 |
| Transcriptional activator Myb A170S, P10242 | -0.038 ± 0.087 |
| Transcriptional activator Myb E151W, P10242 | -0.835 ± 0.078 |
| Transcriptional activator Myb I169N, P10242 | -0.91 ± 0.14 |
| Transcriptional activator Myb I155R, P10242 | -0.935 ± 0.067 |
| Transcriptional activator Myb L173Y, P10242 | -0.627 ± 0.31 |
| Transcriptional activator Myb T188D, P10242 | -0.015 ± 0.057 |
| Transcriptional activator Myb E194D, P10242 | -0.001 ± 0.16 |
| Transcriptional activator Myb Q200R, P10242 | 0.007 ± 0.048 |
| Transcriptional activator Myb I169S, P10242 | -0.642 ± 0.076 |
| Transcriptional activator Myb E201R, P10242 | -0.12 ± 0.066 |
| Transcriptional activator Myb Q200V, P10242 | -0.087 ± 0.074 |
| Transcriptional activator Myb H184W, P10242 | -0.298 ± 0.073 |
| Transcriptional activator Myb Q195R, P10242 | 0.091 ± 0.07 |
| Transcriptional activator Myb S203M, P10242 | -0.054 ± 0.15 |
| Transcriptional activator Myb T148P, P10242 | -0.597 ± 0.045 |

| Substance | abundance fitness |
| --- | --- |
| Transcriptional activator Myb E194F, P10242 | -0.168 ± 0.27 |
| Transcriptional activator Myb V193R, P10242 | -0.084 ± 0.059 |
| Transcriptional activator Myb E201C, P10242 | -0.314 ± 0.11 |
| Transcriptional activator Myb Y156R, P10242 | -0.102 ± 0.037 |
| Transcriptional activator Myb W166C, P10242 | -0.566 ± 0.093 |
| Transcriptional activator Myb E150H, P10242 | -0.41 ± 0.15 |
| Transcriptional activator Myb I154A, P10242 | -0.215 ± 0.054 |
| Transcriptional activator Myb K171T, P10242 | -0.148 ± 0.2 |
| Transcriptional activator Myb K143P, P10242 | -0.406 ± 0.49 |
| Transcriptional activator Myb K143W, P10242 | -0.535 ± 0.076 |
| Transcriptional activator Myb I181N, P10242 | -0.658 ± 0.35 |
| Transcriptional activator Myb E151L, P10242 | -0.482 ± 0.069 |
| Transcriptional activator Myb E201K, P10242 | -0.272 ± 0.16 |
| Transcriptional activator Myb T148F, P10242 | -0.726 ± 0.046 |
| Transcriptional activator Myb W147M, P10242 | -0.274 ± 0.048 |
| Transcriptional activator Myb K204H, P10242 | -0.401 ± 0.39 |
| Transcriptional activator Myb T148S, P10242 | -0.004 ± 0.034 |
| Transcriptional activator Myb T145W, P10242 | -0.318 ± 0.1 |
| Transcriptional activator Myb N179G, P10242 | 0.004 ± 0.041 |
| Transcriptional activator Myb I154R, P10242 | -0.23 ± 0.046 |
| Transcriptional activator Myb I154C, P10242 | -0.328 ± 0.093 |
| Transcriptional activator Myb R176M, P10242 | -0.584 ± 0.11 |

| Substance | abundance fitness |
| --- | --- |
| Transcriptional activator Myb K182Q, P10242 | 0.136 ± 0.12 |
| Transcriptional activator Myb K192I, P10242 | -0.063 ± 0.14 |
| Transcriptional activator Myb E194H, P10242 | -0.403 ± 0.49 |
| Transcriptional activator Myb R176E, P10242 | -0.677 ± 0.11 |
| Transcriptional activator Myb R153S, P10242 | -0.121 ± 0.06 |
| Transcriptional activator Myb S187E, P10242 | -0.001 ± 0.067 |
| Transcriptional activator Myb A170Y, P10242 | -1.08 ± 0.18 |
| Transcriptional activator Myb K182S, P10242 | -0.161 ± 0.069 |
| Transcriptional activator Myb S146V, P10242 | -0.017 ± 0.29 |
| Transcriptional activator Myb W185A, P10242 | -0.736 ± 0.071 |
| Transcriptional activator Myb K143T, P10242 | -0.118 ± 0.11 |
| Transcriptional activator Myb I154E, P10242 | -0.5 ± 0.076 |
| Transcriptional activator Myb L172A, P10242 | -0.291 ± 0.076 |
| Transcriptional activator Myb W185K, P10242 | -0.553 ± 0.11 |
| Transcriptional activator Myb Q200F, P10242 | -0.302 ± 0.11 |
| Transcriptional activator Myb Y198Q, P10242 | -0.02 ± 0.1 |
| Transcriptional activator Myb Q195N, P10242 | 0.107 ± 0.29 |
| Transcriptional activator Myb L172W, P10242 | -0.303 ± 0.089 |
| Transcriptional activator Myb Q195P, P10242 | -0.214 ± 0.15 |
| Transcriptional activator Myb R191K, P10242 | -0.192 ± 0.12 |
| Transcriptional activator Myb T145G, P10242 | -0.091 ± 0.061 |
| Transcriptional activator Myb K192V, P10242 | -0.207 ± 0.074 |

| Substance | abundance fitness |
| --- | --- |
| Transcriptional activator Myb N183D, P10242 | 0.142 ± 0.18 |
| Transcriptional activator Myb R190D, P10242 | -0.073 ± 0.13 |
| Transcriptional activator Myb E194C, P10242 | -0.226 ± 0.21 |
| Transcriptional activator Myb E151Y, P10242 | -1.12 ± 0.36 |
| Transcriptional activator Myb S202R, P10242 | -0.144 ± 0.063 |
| Transcriptional activator Myb W166F, P10242 | -0.474 ± 0.14 |
| Transcriptional activator Myb E149T, P10242 | -0.634 ± 0.43 |
| Transcriptional activator Myb S203Y, P10242 | -0.113 ± 0.15 |
| Transcriptional activator Myb R176P, P10242 | -0.87 ± 0.15 |
| Transcriptional activator Myb T188W, P10242 | -0.093 ± 0.054 |
| Transcriptional activator Myb E151P, P10242 | -0.758 ± 0.15 |
| Transcriptional activator Myb G175P, P10242 | -0.594 ± 0.11 |
| Transcriptional activator Myb I169W, P10242 | -1.08 ± 0.18 |
| Transcriptional activator Myb W185F, P10242 | -0.037 ± 0.075 |
| Transcriptional activator Myb K144C, P10242 | -0.095 ± 0.12 |
| Transcriptional activator Myb R190L, P10242 | -0.131 ± 0.061 |
| Transcriptional activator Myb P174I, P10242 | -0.339 ± 0.14 |
| Transcriptional activator Myb E196R, P10242 | -0.092 ± 0.046 |
| Transcriptional activator Myb V193A, P10242 | -0.074 ± 0.069 |
| Transcriptional activator Myb R153I, P10242 | -0.284 ± 0.13 |
| Transcriptional activator Myb K204W, P10242 | -0.443 ± 0.11 |
| Transcriptional activator Myb I169D, P10242 | -0.679 ± 0.13 |

| Substance | abundance fitness |
| --- | --- |
| Transcriptional activator Myb N186S, P10242 | -0.062 ± 0.062 |
| Transcriptional activator Myb G163M, P10242 | -0.484 ± 0.12 |
| Transcriptional activator Myb K144A, P10242 | -0.202 ± 0.099 |
| Transcriptional activator Myb H159Y, P10242 | -0.007 ± 0.12 |
| Transcriptional activator Myb L172I, P10242 | -0.354 ± 0.16 |
| Transcriptional activator Myb Y198L, P10242 | 0.027 ± 0.089 |
| Transcriptional activator Myb G197L, P10242 | -0.34 ± 0.083 |
| Transcriptional activator Myb K144Y, P10242 | 0.08 ± 0.16 |
| Transcriptional activator Myb E151A, P10242 | -0.597 ± 0.066 |
| Transcriptional activator Myb I181V, P10242 | -0.036 ± 0.07 |
| Transcriptional activator Myb H184V, P10242 | -0.684 ± 0.048 |
| Transcriptional activator Myb T177A, P10242 | -0.137 ± 0.063 |
| Transcriptional activator Myb H184Y, P10242 | -0.001 ± 0.052 |
| Transcriptional activator Myb S203K, P10242 | 0.14 ± 0.19 |
| Transcriptional activator Myb R176W, P10242 | -0.436 ± 0.064 |
| Transcriptional activator Myb E196F, P10242 | -0.247 ± 0.15 |
| Transcriptional activator Myb T145C, P10242 | -0.218 ± 0.16 |
| Transcriptional activator Myb E150N, P10242 | -0.004 ± 0.15 |
| Transcriptional activator Myb K144R, P10242 | -0.078 ± 0.072 |
| Transcriptional activator Myb R191I, P10242 | -0.136 ± 0.16 |
